From PMC6093294

Experiments:
Experiment in all cases: purified protein
purified protein [1] = substrate: CCCCCCCCCCCCCCCC(=O)SCCNC(=O)CCNC(=O)[C@H](O)C(C)(C)COP(=O)(O)OP(=O)(O)OC[C@H]1O[C@@H](n2cnc3c(N)ncnc32)[C@H](O)[C@@H]1OP(=O)(O)O; conditions: 60 mM tryptamine, 300 mM Tris pH 8.0, 150 μM DTNB, 22°C
purified protein [2] = substrate: CCCCCCCCCCCCCC(=O)SCCNC(=O)CCNC(=O)[C@H](O)C(C)(C)COP(=O)(O)OP(=O)(O)OC[C@H]1O[C@@H](n2cnc3c(N)ncnc32)[C@H](O)[C@@H]1OP(=O)(O)O; assay type: biochemical, Bombyx mori; conditions: 60 mM tryptamine, 300 mM Tris pH 8.0, 150 μM DTNB, 22°C
purified protein [3] = substrate: NC[C@H](O)c1ccc(O)cc1; assay type: biochemical, Bombyx mori; conditions: 100 μM oleoyl-CoA, 300 mM Tris pH 8.0, 150 μM DTNB, 22°C
purified protein [4] = substrate: NCCc1ccc(O)cc1; assay type: biochemical, Bombyx mori; conditions: 100 μM oleoyl-CoA, 300 mM Tris pH 8.0, 150 μM DTNB, 22°C
purified protein [5] = substrate: CCCCCCCC/C=C\CCCCCCCC(=O)SCCNC(=O)CCNC(=O)[C@H](O)C(C)(C)COP(=O)(O)OP(=O)(O)OC[C@H]1O[C@@H](n2cnc3c(N)ncnc32)[C@H](O)[C@@H]1OP(=O)(O)O; assay type: biochemical, Bombyx mori; conditions: 60 mM tryptamine, 300 mM Tris pH 8.0, 150 μM DTNB, 22°C
purified protein [6] = substrate: NCCc1c[nH]c2ccccc12; assay type: biochemical, Bombyx mori; conditions: 100 μM oleoyl-CoA, 300 mM Tris pH 8.0, 150 μM DTNB, 22°C
purified protein [7] = substrate: CCCCC/C=C\C/C=C\C/C=C\C/C=C\CCCC(=O)SCCNC(=O)CCNC(=O)[C@H](O)C(C)(C)COP(=O)(O)OP(=O)(O)OC[C@H]1O[C@@H](n2cnc3c(N)ncnc32)[C@H](O)[C@@H]1OP(=O)(O)O; assay type: biochemical, Bombyx mori; conditions: 60 mM tryptamine, 300 mM Tris pH 8.0, 150 μM DTNB, 22°C
purified protein [8] = substrate: CCCCCCCCCCCC(=O)SCCNC(=O)CCNC(=O)[C@H](O)C(C)(C)COP(=O)(O)OP(=O)(O)OC[C@H]1O[C@@H](n2cnc3c(N)ncnc32)[C@H](O)[C@@H]1OP(=O)(O)O; assay type: biochemical, Bombyx mori; conditions: 60 mM tryptamine, 300 mM Tris pH 8.0, 150 μM DTNB, 22°C

B1: Bm-iAANAT (insect arylalkylamine N-acyltransferase from Bombyx mori) (Bombyx mori) (protein)
chain: MAVTSTRGIVNLKEKGHFERENARVEKYTLGDELPAQLSSLEIRPRKMSVPAYTIQRLTYNDRDLVLKFLRRFFFRDEPMNLAVNLLETPESRCTELDDYAAATLSDGVSVAAVDENGDYVGVIINGIVRREEVDYTDKSEDCPNPKFRRILKVLGHLDREARIWDKLPETCDSVLEIRIASTHSSWRGRGLMRVLCEEAERLAKAMGAGALRMDTTSAFSAAAAERLNYKMAFGVRYADLPYAPQPEAPHLEARVYIKEL
In the case of B1, the Km (purified protein [1]) is reported as 1.1 ± 0.30 µM, the kcat (purified protein [1]) is reported as 0.51 s⁻¹ and the kcat/Km (purified protein [1]) is reported as 490000 M⁻¹ s⁻¹. For the same protein, the Km (purified protein [2]) was 0.92 ± 0.20 µM, the kcat (purified protein [2]) was 0.66 ± 0.01 s⁻¹ and the kcat/Km (purified protein [2]) was 720000 ± 150000 M⁻¹ s⁻¹. It also gave a Km (purified protein [3]) of 65000 ± 16000 µM, a kcat (purified protein [3]) of 0.31 ± 0.04 s⁻¹ and a kcat/Km (purified protein [3]) of 4.7 ± 1.2 M⁻¹ s⁻¹. It also gave a Km (purified protein [4]) of 84000 ± 12000 µM, a kcat (purified protein [4]) of 2.7 ± 0.19 s⁻¹ and a kcat/Km (purified protein [4]) of 32 ± 5.3 M⁻¹ s⁻¹. The Km (purified protein [5]) was 1.7 ± 0.51 µM, the kcat (purified protein [5]) was 0.42 ± 0.02 s⁻¹ and the kcat/Km (purified protein [5]) was 240000 ± 70000 M⁻¹ s⁻¹. The Km (purified protein [6]) was 7000 ± 500 µM, the kcat (purified protein [6]) was 0.72 ± 0.01 s⁻¹ and the kcat/Km (purified protein [6]) was 100 ± 7 M⁻¹ s⁻¹. The Km (purified protein [7]) was 1.2 ± 0.67 µM, the kcat (purified protein [7]) was 0.27 ± 0.02 s⁻¹ and the kcat/Km (purified protein [7]) was 240000 ± 130000 M⁻¹ s⁻¹. It also gave a Km (purified protein [8]) of 0.97 ± 0.12 µM.
